Reference: patent US20070265198A1 (ROCKEFELLER UNIVERSITY, published 2007)

Experiments:
[1] = target: T1, PlyC-A, the PlyC heavy chain (C1 bacteriophage lysin, ORF 11)
T1 chain: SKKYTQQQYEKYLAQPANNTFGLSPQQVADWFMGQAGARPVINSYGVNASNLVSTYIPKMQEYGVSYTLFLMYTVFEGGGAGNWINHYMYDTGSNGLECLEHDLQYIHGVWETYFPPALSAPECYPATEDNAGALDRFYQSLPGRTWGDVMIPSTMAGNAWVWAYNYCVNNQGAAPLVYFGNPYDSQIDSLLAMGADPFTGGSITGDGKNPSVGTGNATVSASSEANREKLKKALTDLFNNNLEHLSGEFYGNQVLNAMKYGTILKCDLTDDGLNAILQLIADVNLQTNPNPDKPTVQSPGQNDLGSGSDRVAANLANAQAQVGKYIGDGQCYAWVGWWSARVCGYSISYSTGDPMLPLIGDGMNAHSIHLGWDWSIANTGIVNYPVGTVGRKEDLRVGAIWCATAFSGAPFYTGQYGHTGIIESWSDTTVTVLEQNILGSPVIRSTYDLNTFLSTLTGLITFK

[2] = target: T2, PlyC-A, the PlyC heavy chain (C1 bacteriophage lysin, ORF 11) (C1 bacteriophage, UniProt Q7Y3F1 2-465); experiment: N-terminal sequencing signals of the native enzyme (55 pm PlyC-B, 12 pm PlyC-A)
T2 construct: 50 kDa subunit of the PlyC lysin; also called heavy subunit (ORF 11); plyCA gene product
T2 sequence: T1 chain

[3] = target: T2, PlyC-A, the PlyC heavy chain (C1 …); experiment: 35S-methionine labelling of purified PlyC, SDS-PAGE bands counted by scintillation (n=20), cpm per methionine
Protocol: ³⁵S-methionine labeling of PlyC. […] A fresh 20 ml overnight culture of B834/pBAD24::plyC was washed twice with M9 media, and used to inoculate a 2 L flask of M9 minimal media supplemented with 2 mCi ³⁵S-methionine (New England Nuclear). Expression of ³⁵S-Methionine-PlyC was induced with 0.5% arabinose and the enzyme was purified as described above. The heavy and light chains were resolved by SDS-PAGE using 15 μg of labeled PlyC loaded each lane (n=20). Individual bands were cut out of the gel, suspended in 1 ml of SigmaFluor scintillation fluid (Sigma), and counts per minute (cpm) of β-activity was assessed on a Beckman LS5000TD counter.
In order to achieve a mass of 100 kDa, multiple copies of one or both subunits must exist. Thus, PlyC is a multimer. Circumstantial evidence for a molar ratio of 5 light chains to one heavy chain was obtained from N-terminal sequencing of the native enzyme, which yielded a 55 pm signal for PlyC-B and a 12 pm signal for PlyC-A (data not shown). […] Therefore, to further investigate the ratios of PlyC-A and PlyC-B, we cloned plyC into B834 E. coli cells, which are auxotrophic for methionine. […] We were able to enumerate an average signal, measured in counts per minute, for each chain by placing gel-extracted bands (n=20) in scintillation fluid and measuring the β activity (Table IV). […]

B1: PlyC-B, the PlyC light chain (C1 bacteriophage lysin, ORF 9) (enzyme)
chain: SKINVNVENVSGVQGFLFHTDGKESYGYRAFINGVEIGIKDIETVQGFQQIIPSINISKSDVEAIRKAMKK
notes: 8 kDa subunit of the PlyC lysin, a 72 amino acid polypeptide; About six copies per PlyC-A are proposed in the native multimer; also called light subunit (ORF 9); plyCB gene product
- PlyC lytic activity of a double transformant (pBAD33::plyCB and pBAD24::plyCA in one host) [1]: Upon induction with 0.5% arabinose, the double transformant contained PlyC activity
- activity of the refolded PlyC-B and PlyC-A mixture, normalized to the native PlyC clone (FIG. 3, lane 5) [1]: reconstituted ~25% of the wild-type activity (lane 5)
- lytic activity on group A streptococci (chains expressed individually, mixed, incubated 1 hr at room temperature) [1]: When both chains were mixed together and allowed to incubate at room temperature for 1 hr, again no activity was noted
- lytic activity on group A streptococci after urea denaturation and refolding of the mixed chains, relative to wild-type PlyC [1]: we were able to reconstitute ~30% of wild-type activity
- lytic activity on group A streptococci of a lil- chimera with full-length plyCB and plyCA [1]: a lil- chimera, which contained full-length plyCB and plyCA, possessed wild-type PlyC activity
- molar ratio of light chains to heavy chain [2]: 5 light chains per heavy chain
- Avg. ratio PlyC-A:PlyC-B [3]: 6.17 PlyC-B per PlyC-A
